T1: PUF4 RNA-binding domain (Saccharomyces cerevisiae, UniProt P25339 537-888)
T1 sequence: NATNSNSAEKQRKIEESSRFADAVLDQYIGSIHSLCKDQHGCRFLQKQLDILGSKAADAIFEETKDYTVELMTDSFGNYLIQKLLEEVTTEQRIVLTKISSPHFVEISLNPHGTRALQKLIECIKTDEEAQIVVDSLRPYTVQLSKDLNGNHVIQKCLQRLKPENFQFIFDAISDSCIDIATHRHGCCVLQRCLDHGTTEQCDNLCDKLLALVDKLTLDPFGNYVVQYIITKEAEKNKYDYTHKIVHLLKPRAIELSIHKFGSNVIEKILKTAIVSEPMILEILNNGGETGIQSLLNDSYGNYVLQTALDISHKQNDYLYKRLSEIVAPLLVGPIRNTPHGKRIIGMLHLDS

B1: Ic_S2_P3E.1_K3.1_C3.1_H3.1_A3.1_F3.1_[A8T]_T3.1 (ssRNA)
RNA: UUUGAUUAAUAUGAUAUCGUUCUUUCUUGUAUAUUUUCUUUCUCGAUAUCAUAUUAAUCUUU

Molecular target: T1, PUF4 RNA-binding domain
Experiment: Mg; RNA-MaP; 20 mM Na-HEPES pH 7.4, 30 mM KOAc, 0.75 mM MgCl2, 0.1% Tween-20, 5% glycerol, 0.1 mg/mL BSA, 2 mM DTT; 25 C; 0.0125-409.6 nM protein
Settings: tags: N-His6-TEV cleaved; C-SNAP kept, Cy3B-labelled; label: tethered on chip by stalled RNA polymerase

Row | Binder | Kd [nM]
1 | UCUCUUCUUGUAUCCAUAUAUCUCUU (ssRNA) [Ie_S1_P3E.2_K3.1_C3.2_H3.1_A3.1_[+5CC]_F3.1_T3.2] | 29.9
2 | UCUCUUCUUGUAUAUUUCAUAUCUCUU (ssRNA) [Ie_S1_P3E.2_K3.1_C3.2_H3.1_A3.1_F3.1_[+7TTC]_T3.2] | 6.46
3 | UCUCUUCUUGUAUAUCUCUCAUAUCUCUU (ssRNA) [Ie_S1_P3E.2_K3.1_C3.2_H3.1_A3.1_F3.1_[+7CTCTC]_T3.2] | 28.5
4 | UCUCUUCUUGUUCUCUAUAUAUAUCUCUU (ssRNA) [Ie_S1_P3E.2_K3.1_C3.2_H3.1_[+3TCTCT]_A3.1_F3.1_T3.2] | 68.4
5 | UCUCUUCUUGUACCUCUAUAUAUCUCUU (ssRNA) [Ie_S1_P3E.2_K3.1_C3.2_H3.1_[+4CCTC]_A3.1_F3.1_T3.2] | 12.4
6 | UCUCUUCUUGUACUAUAUAUCUCUU (ssRNA) [Ie_S1_P3E.2_K3.1_C3.2_H3.1_[+4C]_A3.1_F3.1_T3.2] | 1.5
7 | UCUCUUCUUGUAUAUAUCCUAUCUCUU (ssRNA) [Ie_S1_P3E.2_K3.1_C3.2_H3.1_A3.1_F3.1_[+8TCC]_T3.2] | 10.2
8 | UCUCUUUGUAUGGUUAUCUCUU (ssRNA) [Ib_S1_P5E.1_K5.1_C5.1_H5.1_A5.1_[T6G]_[A7G]_F5.1_T5.1] | 37.1
9 | UCUCUUCUUGUUUCCUAUAUAUAUCUCUU (ssRNA) [Ie_S1_P3E.2_K3.1_C3.2_H3.1_[+3TTCCT]_A3.1_F3.1_T3.2] | 106
10 | UCUCUUCUUGUAUAUUCAUAUCUCUU (ssRNA) [Ie_S1_P3E.2_K3.1_C3.2_H3.1_A3.1_F3.1_[+7TC]_T3.2] | 10.3
11 | UCUCUUUGUAUCCUUAUCUCUU (ssRNA) [Ib_S1_P5E.1_K5.1_C5.1_H5.1_A5.1_[T6C]_[A7C]_F5.1_T5.1] | 9.16
12 | UCUCUUCUUGUCCCAUAUAUAUCUCUU (ssRNA) [Ie_S1_P3E.2_K3.1_C3.2_H3.1_[+3CCC]_A3.1_F3.1_T3.2] | 64.7
13 | UCUCUUCUUGUAUACUAUAUCUCUU (ssRNA) [Ie_S1_P3E.2_K3.1_C3.2_H3.1_A3.1_[+6C]_F3.1_T3.2] | 0.878
14 | UCUCUUCUUGUCAUAUAUAUCUCUU (ssRNA) [Ie_S1_P3E.2_K3.1_C3.2_H3.1_[+3C]_A3.1_F3.1_T3.2] | 67
15 | UCUCUUCUUGUAUAUAUCUCUAUCUCUU (ssRNA) [Ie_S1_P3E.2_K3.1_C3.2_H3.1_A3.1_F3.1_[+8TCTC]_T3.2] | 5.63
16 | UCUCUUUGUAUGCUUAUCUCUU (ssRNA) [Ic_S1_P5E.1_K5.1_C5.1_H5.1_A5.1_[T6G]_[A7C]_F5.1_T5.1] | 32
17 | UCUCUUCUUGUCCUCUAUAUAUAUCUCUU (ssRNA) [Ie_S1_P3E.2_K3.1_C3.2_H3.1_[+3CCTCT]_A3.1_F3.1_T3.2] | 139
18 | UCUCUUCUUGCUCUUAUAUAUAUCUCUU (ssRNA) [Ie_S1_P3E.2_K3.1_C3.2_H3.1_[+2CTCT]_A3.1_F3.1_T3.2] | 824
19 | UCUCUUCUUGUUUCCAUAUAUAUCUCUU (ssRNA) [Ie_S1_P3E.2_K3.1_C3.2_H3.1_[+3TTCC]_A3.1_F3.1_T3.2] | 69.3
20 | UCUCUUCUUGUACCUAUAUAUCUCUU (ssRNA) [Ie_S1_P3E.2_K3.1_C3.2_H3.1_[+4CC]_A3.1_F3.1_T3.2] | 17.6
21 | UCUCUUCUUGUAUAUCCCAUAUCUCUU (ssRNA) [Ie_S1_P3E.2_K3.1_C3.2_H3.1_A3.1_F3.1_[+7CCC]_T3.2] | 37.9

Row | Binder | Kd [nM]
22 | UCUCUUCUUGUACUUAUAUAUCUCUU (ssRNA) [Ie_S1_P3E.2_K3.1_C3.2_H3.1_[+4CT]_A3.1_F3.1_T3.2] | 6.52
23 | UCUCUUUGUAUCGUUAUCUCUU (ssRNA) [Ib_S1_P5E.1_K5.1_C5.1_H5.1_A5.1_[T6C]_[A7G]_F5.1_T5.1] | 14.4
24 | UCUCUUCUUGUACCCUAUAUAUCUCUU (ssRNA) [Ie_S1_P3E.2_K3.1_C3.2_H3.1_[+4CCC]_A3.1_F3.1_T3.2] | 8.38
25 | UCUCUUCUUGUAUAUAUUUUAUCUCUU (ssRNA) [Ie_S1_P3E.2_K3.1_C3.2_H3.1_A3.1_F3.1_[+8TTT]_T3.2] | 6.71
26 | UCUCUUCUUGUACCCUUUAUAUAUCUCUU (ssRNA) [Ie_S1_P3E.2_K3.1_C3.2_H3.1_[+4CCCTT]_A3.1_F3.1_T3.2] | 20.6
27 | UCUCUUCUUGUUCAUAUAUAUCUCUU (ssRNA) [Ie_S1_P3E.2_K3.1_C3.2_H3.1_[+3TC]_A3.1_F3.1_T3.2] | 98.7
28 | UCUCUUCUUGUUCCUAUAUAUAUCUCUU (ssRNA) [Ie_S1_P3E.2_K3.1_C3.2_H3.1_[+2TTCC]_A3.1_F3.1_T3.2] | 104
29 | UCUCUUCUUGUAUAUACCCUUAUCUCUU (ssRNA) [Ie_S1_P3E.2_K3.1_C3.2_H3.1_A3.1_F3.1_[+8CCCT]_T3.2] | 12.3
30 | UCUCUUCUUGUCCCUAUAUAUAUCUCUU (ssRNA) [Ie_S1_P3E.2_K3.1_C3.2_H3.1_[+3CCCT]_A3.1_F3.1_T3.2] | 454
31 | UCUCUUCUUGUCUUAUAUAUAUCUCUU (ssRNA) [Ie_S1_P3E.2_K3.1_C3.2_H3.1_[+3CTT]_A3.1_F3.1_T3.2] | 95.5
32 | UCUCUUCUUGUCCAUAUAUAUCUCUU (ssRNA) [Ie_S1_P3E.2_K3.1_C3.2_H3.1_[+3CC]_A3.1_F3.1_T3.2] | 822
33 | UCUCUUCUUGUACUCUUAUAUAUCUCUU (ssRNA) [Ie_S1_P3E.2_K3.1_C3.2_H3.1_[+4CTCT]_A3.1_F3.1_T3.2] | 9.53
34 | UCUCUUCUUGUAUAUAUUAUCUCUU (ssRNA) [Ie_S1_P3E.2_K3.1_C3.2_H3.1_A3.1_F3.1_[+8T]_T3.2] | 5.64
35 | UCUCUUCUUGUACUCUAUAUAUCUCUU (ssRNA) [Ie_S1_P3E.2_K3.1_C3.2_H3.1_[+4CTC]_A3.1_F3.1_T3.2] | 3.95
36 | UCUCUUCUUGUUCCAUAUAUAUCUCUU (ssRNA) [Ie_S1_P3E.2_K3.1_C3.2_H3.1_[+3TCC]_A3.1_F3.1_T3.2] | 26.1
37 | UCUCUUCUUGUAUAUAUCUAUCUCUU (ssRNA) [Ie_S1_P3E.2_K3.1_C3.2_H3.1_A3.1_F3.1_[+8TC]_T3.2] | 9.28
38 | B1 | 1.67
39 | UCUCUUCUUGUAUAUUCCAUAUCUCUU (ssRNA) [Ie_S1_P3E.2_K3.1_C3.2_H3.1_A3.1_F3.1_[+7TCC]_T3.2] | 9.71
40 | UCUCUUCUUGUAUUAUAUAUCUCUU (ssRNA) [Ie_S1_P3E.2_K3.1_C3.2_H3.1_A3.1_[+5T]_F3.1_T3.2] | 2.15
41 | UCUCUUCUUGUACUCUCUAUAUAUCUCUU (ssRNA) [Ie_S1_P3E.2_K3.1_C3.2_H3.1_[+4CTCTC]_A3.1_F3.1_T3.2] | 31
42 | UCUCUUCUUGUCUCUAUAUAUAUCUCUU (ssRNA) [Ie_S1_P3E.2_K3.1_C3.2_H3.1_[+2TCTC]_A3.1_F3.1_T3.2] | 456

Row | Binder | Kd [nM]
43 | UCUCUUCUUGUCCUCAUAUAUAUCUCUU (ssRNA) [Ie_S1_P3E.2_K3.1_C3.2_H3.1_[+3CCTC]_A3.1_F3.1_T3.2] | 798
44 | UCUCUUCUUGCCUUAUAUAUAUCUCUU (ssRNA) [Ie_S1_P3E.2_K3.1_C3.2_H3.1_[+2CCT]_A3.1_F3.1_T3.2] | 1510
45 | UCUCUUUGUAUCUUUAUCUCUU (ssRNA) [Ib_S1_P5E.1_K5.1_C5.1_H5.1_A5.1_[T6C]_[A7T]_F5.1_T5.1] | 6.01
46 | UCUCUUCUUGCCCUUAUAUAUAUCUCUU (ssRNA) [Ie_S1_P3E.2_K3.1_C3.2_H3.1_[+2CCCT]_A3.1_F3.1_T3.2] | 1190
47 | UCUCUUCUUGCCUCUUAUAUAUAUCUCUU (ssRNA) [Ie_S1_P3E.2_K3.1_C3.2_H3.1_[+2CCTCT]_A3.1_F3.1_T3.2] | 1680
48 | UCUCUUCUUGUAUAUAUUCUAUCUCUU (ssRNA) [Ie_S1_P3E.2_K3.1_C3.2_H3.1_A3.1_F3.1_[+8TTC]_T3.2] | 4.4
49 | UCUCUUCUUGUCCUAUAUAUAUCUCUU (ssRNA) [Ie_S1_P3E.2_K3.1_C3.2_H3.1_[+2TCC]_A3.1_F3.1_T3.2] | 62.9
50 | UCUCUUCUUGUAUAUAUUCCUAUCUCUU (ssRNA) [Ie_S1_P3E.2_K3.1_C3.2_H3.1_A3.1_F3.1_[+8TTCC]_T3.2] | 6.86
51 | UCUCUUCUUGUAUAUACCUUAUCUCUU (ssRNA) [Ie_S1_P3E.2_K3.1_C3.2_H3.1_A3.1_F3.1_[+8CCT]_T3.2] | 8.91
52 | UCUCUUUGUAUAGUUAUCUCUU (ssRNA) [Ib_S1_P5E.1_K5.1_C5.1_H5.1_A5.1_[T6A]_[A7G]_F5.1_T5.1] | 7.36
53 | UCUCUUCUUGUAUAUACUUAUCUCUU (ssRNA) [Ie_S1_P3E.2_K3.1_C3.2_H3.1_A3.1_F3.1_[+8CT]_T3.2] | 9.04
54 | UCUCUUCUUGUAUCAUAUAUCUCUU (ssRNA) [Ie_S1_P3E.2_K3.1_C3.2_H3.1_A3.1_[+5C]_F3.1_T3.2] | 1.6
55 | UCUCUUCUUGUAUAUCUCAUAUCUCUU (ssRNA) [Ie_S1_P3E.2_K3.1_C3.2_H3.1_A3.1_F3.1_[+7CTC]_T3.2] | 24.7
56 | UCUCUUCUUGUAUAUACUCUAUCUCUU (ssRNA) [Ie_S1_P3E.2_K3.1_C3.2_H3.1_A3.1_F3.1_[+8CTC]_T3.2] | 11.7
57 | UCUCUUCUUGUAUAUACUCUCUAUCUCUU (ssRNA) [Ie_S1_P3E.2_K3.1_C3.2_H3.1_A3.1_F3.1_[+8CTCTC]_T3.2] | 11.7
58 | UCUCUUCUUGUUUUAUAUAUAUCUCUU (ssRNA) [Ie_S1_P3E.2_K3.1_C3.2_H3.1_[+2TTT]_A3.1_F3.1_T3.2] | 27.9
59 | UCUCUUCUUGUUCUAUAUAUAUCUCUU (ssRNA) [Ie_S1_P3E.2_K3.1_C3.2_H3.1_[+3TCT]_A3.1_F3.1_T3.2] | 53.2
60 | UCUCUUCUUGUAUAUACUAUCUCUU (ssRNA) [Ie_S1_P3E.2_K3.1_C3.2_H3.1_A3.1_F3.1_[+8C]_T3.2] | 8.83
61 | UCUCUUCUUGCUCUCUAUAUAUAUCUCUU (ssRNA) [Ie_S1_P3E.2_K3.1_C3.2_H3.1_[+2CTCTC]_A3.1_F3.1_T3.2] | 1140
